In the nanobody polyreactivity screen of Harvey et al. (2022):

Assay: yeast display, Sf9 membrane polyspecificity reagent, FACS + sequencing; frameworks hold sequencing errors
In short: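 Synthetic nanobody libraries on Saccharomyces cerevisiae BJ5465 were galactose-induced for 36–48 hours, stained 1 hour at 4 °C with 10% biotinylated, detergent-solubilized Sf9 membrane reagent and enriched on streptavidin microbeads. FACS then separated cells into low and high (top ~1%) gates by anti-HA (expression) and streptavidin (reagent binding) fluorescence. Genes were colony-PCR amplified, MiSeq 2 × 250 sequenced and CDR-length filtered. A clone's polyreactivity label is that of its gate of origin.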

| Sequence | polyreactivity (PSR sort gate) |
| --- | --- |
| QVQLVESGGGLVQAGGSLRLSCAASGSIFSRYTMGWYRQAPGKERELVAAISYSGTRTYYADSVKGRFTISRDNAKNTVYLQMNSLKPEDTAVYYCAAIASPAGSNYWGQGTQVTVSS | high polyreactivity |
| QVQLVESGGGLVQAGGSLRLSCAASGIIFLGYVMGWYRQAPGKERELVAAISSSGGRTYYADSVKGRFTISRDNAKNTVYLQMNSLKPEDTAVYYCARYSYRGTNVRYDYWGQGTQVTVSS | high polyreactivity |
| QVQLVESGGGIVQAGGSLRLSCAASGSIFLGYTMGLYRQAPGKERELVAAINSSGGSTYYADSVKGRFTISRDNAKNTVYLQMNSLKPEDTAVYYCADANSILLFDSWGQGTQVTVSS | low polyreactivity |
| QVQLVESGGGLVQAGGSLRLSSAASGITFGLYAMGWYRQPPGKERELVADITWSGGSTYYADSVKGRFTISRDNAKNTVYFQMNRLKPEDTAVYYCNADLYADESLFWFALYDYWGQGTQVTVSS | low polyreactivity |
| QVQLVESGRGLVQAGGSLRLISAASGSIFVHNTMGWYSQAPGKDRELVAAITYSGGSTNYADSVKGRFTISRDNAKNTVYLQMNSLKPEDTAVYYCATRAISQFHSLGYYYWGQGTEVTVSS | low polyreactivity |
| QVQLVESGGGLLQAGGSLRLSCAASGNIFYRYAMGWYRQAPGKERELVAAISGNSGNTYYADSVKGRFTISRDNAKNTVYLQIHSLNPEDTAVYYSAAERRAFGHYSGGQGTQVTVSS | high polyreactivity |
| QVQLVESGGGLVEAGGSLRLSCAASGIIFVYNAMGWSRKAPGKERELVADINWRGDGTYYSDSVKGRFTISPDNAKNTVYLQMNSLKPEDTAVYYCNAVRFRPNSHYRPVGYEYWGQGTQVTESS | low polyreactivity |
| QVQLVESGGGLVQAGGSLRLSCAASGSIFVLNAMGWYRQAPGKERELVAAITNVGSTYYADSVKGRFTISRDNAKNTVYLQMNSLKPEDTAVYYCNAVVATSKYTDYYWGQGTQVTVSS | low polyreactivity |
| QVQLVESGGGLVQAGGSLRLSCAASGTYRLYAMGWYRQAPGKEREFVAAITYGGGGTYYADSVKGRFTISRDNAKNTVYLQMNSLKPEDTAVYYCAADLYLTDTDVEYYYWGQGTKVTVSS | low polyreactivity |
| QVQLVESGGGLVQAGGSLRLSCAASGFIFAPNAMGWYRQAPGKERELVAAISHSGASTFYADSVKGRFTISRDYAKNTVYLQMNSLKPEDTAVYYCGAPPYYSYDYWRQGTQVTVSS | low polyreactivity |
| QVQLVESGGGLVQAGGSLRLSCAASGSIFSFYTMGWYRQAPGKERELVASSTTYADSVKGRFTISRDNAKNTVYLQMNSLKPEDTAVYYCAAEYYSSITGWYYYWGQGTQVTVSS | low polyreactivity |
| QVQLVESGGGLVQAGGSHRLSCAAYGRIFYYYVMGWYRQAPGKERELVAVIDWSGGSTYYADSVKGRFTISRDNAKYTVYVQMNCLKPDDTAVYYCAKVWLNFSLAYEDYDYWGQGTQVNVSS | low polyreactivity |
| QVQLVESGGGLVQAGGSLRLSCAASGSTFYTNPMGWYRQAPGKEREFVAAISGSGSSTYADSVKGRFTISRDNAKNTVYLQMNSLKPEDTAVYYCAADWFILRTDYYWGQGTQVTVSS | low polyreactivity |
| QVQLVESGVGLVQAGGSLRLSCAASGFTFSYYAMGWYRKAPGKERELVAGITTGGGTNYADSVKGRFTISRDNAKNTVYLQMNSLKPEDPAVYYCNAVGAHWVSYSSPVRFDYWGQGTQVTVSS | low polyreactivity |
| QVQLVESGGGLVQAGGSLRLSCAASGIIFNTYAMGWYRQAPGKERELVAAIDSRDASTYADSVKGRYTISRDNAKNTVYLQMNSLIPEDTAVYYCAATHNVDLISEVYYWGQGTQVTVSS | low polyreactivity |
| QVQLVESGGGLVQAGGSLRLSSAASGFTFYLNALGGYRQAPGKERELVAAISSSGGITYYADSVKGRFTISRDNAKNTVYLQMNSLKPEYTAVYYCAAYWPKYRYEADRDYWGQGTQVTVSS | low polyreactivity |
| QVQLVESGGGLVQAGGSLRLSCAASGRTFSYYAMGWYIQAPGKERELVAAINSSGGRTYYADSVKGRFTISRDNAKNTVYLQMNSLKPEDTAVYYCAARSYSTSSHHGYWGQGTQVTVSS | high polyreactivity |
